Results taken from PMC4585926, “A RANKL mutant used as an inter-species vaccine for efficient immunotherapy of osteoporosis” (Scientific Reports, 2015).

B1: human RANKL ectodomain (residues 158-317), wild type [human] / mouse RANK extracellular domain [mouse] (parent complex)
chain 1: SKLEAQPFAHLTINATDIPSGSHKVSLSSWYHDRGWAKISNMTFSNGKLIVNQDGFYYLYANICFRHHETSGDLATEYLQLMVYVTKTSIKIPSSHTLMKGGSTKYWSGNSEFHFYSINVGGFFKLRSGEEISIEVSNPSLLDPDQDATYFGAFKVRDID
chain 2: VTPPCTQERHYEHLGRCCSRCEPGKYLSSKCTPTSDSVCLPCGPDEYLDTWNEEDKCLLHKVCDAGKALVAVDPGNHTAPRRCACTAGYHWNSDCECCRRNTECAPGFGAQHPLQLNKDTVCTPCLLGFFSDVFSSTDKCKPWTNCTLLGKLEAHQGTTESDVVCSSSMTLRRPPKEAQAYLPS

Variants of: B1
Assay: SPR (Biacore, chelating NTA sensor chip); hRANKL or mutant injected at 0, 0.47, 0.94, 1.88, 3.75, 7.5, 15 and 30 nM; parent: 0.156 nM

Variant	Kd [nM]
chain 1 D143A	2.15
chain 1 R66A, chain 1 D143A	39.4
chain 1 R66A	10.7
